Stoichiometry N data for 1 molecule are collected here from PMC4118026.

The target in the experiment is T1, apoptosis-associated speck-like protein containing a CARD (mouse (endogenous in primary cortical astrocytes)), Q9EPB4.
T1 chain: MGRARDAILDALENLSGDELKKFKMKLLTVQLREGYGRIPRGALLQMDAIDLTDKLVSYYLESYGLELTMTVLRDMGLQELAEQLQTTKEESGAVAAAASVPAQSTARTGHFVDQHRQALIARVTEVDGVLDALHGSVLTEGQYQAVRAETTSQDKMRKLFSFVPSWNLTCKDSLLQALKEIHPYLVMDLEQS
Put plainly: cross-linking; astrocytes treated with ATP, LPS or ethanol, lysed in PBS/Triton 0.5%; 8000 x g pellets cross-linked with 2 mM DSS for 30 min at room temperature; 12% SDS-PAGE, blot with anti-mouse ASC. Particulars: remark: other sources report otherwise.

Several values for one entry are separate records, joined by “and”; a condition that tells them apart may be missing. Identical values can stand only once.

B1: apoptosis-associated speck-like protein containing a CARD, Q9EPB4 1-193 (natural protein)
chain: T1 chain
As a reminder, the stoichiometry N is a count of units in the complex or per binding partner. For B1, the stoichiometry N was 2 and 3.
